{
  "source": "patent US20230146533A1",
  "about": "“KERATIN BD-10, PREPARATION METHOD THEREFOR AND PHARMACEUTICAL COMPOSITION AND USE THEREOF” (INSTITUTE OF MATERIA MEDICA, CHINESE ACADEMY OF MEDICAL …, priority 2019, published 2023)",
  "molecules": {"B1": {"name": "BD-10: recombinant keratin with amino acid sequence SEQ ID NO:1, expressed in E. coli inclusion bodies, band around 55 kD (protein, listed as Bos taurus)", "chain": "MSCRSYRISPGYSVTRTFSSCSAVAPKTGSRCCITAAPYRGVSCYRGLTGFGSRSVSALGSCGPRIAVGGFRAGSCNRSFGYRSGGVGGLSPPCITTVSVNESLLTPLNLEIDPNAQCVKHEEKEQIKNLNSRFAAFIDKVRFLEQQNKLLETKWQFYQNQRCCESNLEPLFNGYIETLRREAEHVEADGGRLASELNHVQEVLEGYKKKYEEEVALRATAENEFVVLKKDVDCAYLRKSDLEANVEALVEESNFLKRLYDEEIQILNAHISDTSVIVKMDNSRDLNMDCVVAEIKAQYDDIASRSRAEAESWYRNKCEEMKATVIRHGETLRRTKEEINELNRIIQRLTAEIENAKCQRTKLEAAVAEAEQQGEAALNDARCKLAGLEEALQKAKQDMACLLKEYQEVMNSKLGLDIEIATYRRLLEGEEQRLCEGVGSVNVCVSSSRGGVTCGGLTYSTTAGRQIASGPVATGGSITVLAPDSCVPCQPRASSFSCGSSRSVRFA"}},
  "key": {"[1]": {"test_system": "phenol red excretion in mice", "assay": "Expectorant test, phenol red excretion method in mice", "type": "in vivo, ICR mice", "conditions": "for Phenol red excretion: 2.5% phenol red i.p. one hour later, trachea after 30 minutes, X ± SEM", "protocol": "Animals: male ICR mice; Drugs and reagents: Mucosolvan (ambroxol hydrochloride tablets), phenol red, sodium bicarbonate, protein BD-10; Instruments: centrifuge (Sigma-3K15 type), balance (XS105DU type), Microplate tester (BIO-TEK type). Experiment grouping: • Solvent control group; • Mucosolvan 30 mg/kg group; • Protein BD-10, 20 mg/kg group, 50 mg/kg group.\nThe animals were fasted and water was taken freely 16 hours before the experiment. Orally administered Mucosolvan and different doses of protein BD-10 (administration volume 10 ml/kg) in groups, and the solvent control group was given the same volume of distilled water. One hour later, 2.5% phenol red solution was injected intraperitoneally. Mice were sacrificed by neck dislocation after 30 minutes. Take a trachea from below the thyroid cartilage to the branch of the trachea, and put the trachea into 3 ml 5% NaHCO3 solution and let it stand for 3 hours. Take 1 ml of the supernatant and centrifuge at 3000 rpm for 5 minutes. Measure and record the absorbance at 546 nm. According to the standard curve of phenol red, the excretion of phenol red was calculated.\nRecord the time point of oral administration, the time point of intraperitoneal injection of 2.5% phenol red solution, and the time point of taking the trachea respectively; The absorbance of each group of samples was measured by the microplate reader at 546 nm, Calculate the excretion of phenol red according to the standard curve of phenol red. Calculate the mean and standard error of the data in each group, and use TTEST to compare the solvent control group with other groups, and P<0.05 is considered as a significant difference."}, "[2]": {"test_system": "lipopolysaccharide (LPS) induced fever in SD rats", "assay": "Lipopolysaccharide (LPS) induced fever model in SD rats", "type": "in vivo", "conditions": "for Body temperature 2 hours after modeling / Body temperature 4 hours after modeling / Body temperature 6 hours after modeling / Body temperature 8 hours after modeling: LPS 20 μg/kg i.p., SD rats", "protocol": "Animals: 230-260 grams of male SD rats; Drugs: lipopolysaccharide (LPS, SIGMA L-2880), aspirin (SIGMA A2093), protein BD-10; Instruments: electronic balance (SARTORIUS BP121S type), electronic clinical thermometer (CITIZEN CT-513W type).\nMethod: the method of intraperitoneal injection of Lipopolysaccharide to replicate rat fever model.\n(§1) Preparation of experimental animals: After the experimental animals adapt to the experimental environment (temperature 22° C.±2° C., relative humidity 50%±2%) for 1 day. Pre-adaptation to measure rectal temperature at 8:00 and 15:00, rats were fasted and water was taken freely 12 h before experiment, and let the animal to empty its feces before measuring the rectal temperature. Apply petroleum jelly to the electronic thermometer probe before each temperature measurement. Insert the rat rectum 2 cm (can be marked at 2 cm to ensure that the depth of each insertion is consistent), and record the body temperature after the reading is stable.\nIntraperitoneal injection of lipopolysaccharide to replicate rat fever model: The body temperature of the rats was measured before modeling. Qualified rats with a body temperature of 36.2-37.3° C. were selected and randomly divided into groups with 8 rats in each group. After oral administration of aspirin and different doses of protein BD-10, lipopolysaccharide (20 μg/kg, 2 ml/kg) was injected intraperitoneally immediately, and the normal control group was injected intraperitoneally with an equal volume of normal saline. The body temperatures of the rats were monitored after 2 hours for a total of 8 hours.\n(§2) According to the body temperature measured at each time point on the day of the experiment, calculate the mean, standard deviation and standard error of the body temperature of each group of rats. The data of each group was compared with TTEST, and P<0.05 was considered as a significant difference."}, "[3]": {"test_system": "yeast-induced fever model in rats", "assay": "Yeast-induced fever model in SD rats", "type": "in vivo", "conditions": "for Body temperature 2 hours after modeling / Body temperature 4 hours after modeling / Body temperature 6 hours after modeling / Body temperature 8 hours after modeling: 20% yeast suspension 10 ml/kg s.c., SD rats", "protocol": "Animals: 230-260 grams of male SD rats; Medicines: yeast (OXOID LP0021), aspirin (SIGMA A2093), protein BD-10; Instruments: electronic balance (SARTORIUS BP121S type), electronic clinical thermometer (CITIZEN CT-513W type). Experiment grouping: • Normal control group; • Model group: yeast fever model; • Positive control group: Aspirin 300 mg/kg group; • Protein BD-10, 10 mg/kg group, 50 mg/kg group.\nas §1\nSubcutaneous injection of dry yeast to replicate rat fever model: The body temperature of the rats was measured before modeling. Qualified rats with a body temperature of 36.2-37.3° C. were selected and randomly divided into groups with 8 rats in each group. After oral administration of aspirin and different doses of protein BD-10, 20% yeast suspension (10 ml/kg) was injected subcutaneously immediately, and the normal control group was injected intraperitoneally with an equal volume of normal saline. The body temperatures of the rats were monitored after 2 hours for a total of 8 hours.\nas §2"}},
  "data": [
    {"molecule": "B1", "values": [
      {"measurement": "Effect on excretion of phenol red (in words)", "setting": "[1]; BD-10 20 mg/kg and 50 mg/kg dose groups, vs solvent control group P<0.05", "value": "significantly increased the excretion of phenol red"},
      {"measurement": "Phenol red excretion", "setting": "[1]; BD-10 20 mg/kg oral", "value": "0.746 ± 0.035", "unit": "µg/mL"},
      {"measurement": "Phenol red excretion", "setting": "[1]; BD-10 50 mg/kg oral", "value": "0.668 ± 0.063", "unit": "µg/mL"},
      {"measurement": "Expectorant effect (in words, summary)", "setting": "[1]; BD-10, dose not stated", "value": "has obvious expectorant effect"},
      {"measurement": "Effect on body temperature of model rats (in words)", "setting": "[2]; BD-10 10 mg/kg dose group, 2 hours after modeling, vs model group P<0.05", "value": "can significantly reduce the body temperature"},
      {"measurement": "Body temperature 2 hours after modeling", "setting": "[2]; BD-10 10 mg/kg oral", "value": "37.3 ± 0.1", "unit": "°C"},
      {"measurement": "Body temperature 4 hours after modeling", "setting": "[2]; BD-10 10 mg/kg oral", "value": "37.8 ± 0.1", "unit": "°C"},
      {"measurement": "Body temperature 6 hours after modeling", "setting": "[2]; BD-10 10 mg/kg oral", "value": "37.8 ± 0.1", "unit": "°C"},
      {"measurement": "Body temperature 8 hours after modeling", "setting": "[2]; BD-10 10 mg/kg oral", "value": "37.6 ± 0.1", "unit": "°C"},
      {"measurement": "Body temperature 2 hours after modeling", "setting": "[2]; BD-10 50 mg/kg oral", "value": "37.3 ± 0.2", "unit": "°C"},
      {"measurement": "Body temperature 4 hours after modeling", "setting": "[2]; BD-10 50 mg/kg oral", "value": "37.7 ± 0.2", "unit": "°C"},
      {"measurement": "Body temperature 6 hours after modeling", "setting": "[2]; BD-10 50 mg/kg oral", "value": "37.9 ± 0.2", "unit": "°C"},
      {"measurement": "Body temperature 8 hours after modeling", "setting": "[2]; BD-10 50 mg/kg oral", "value": "37.6 ± 0.1", "unit": "°C"},
      {"measurement": "Effect on body temperature rise (in words, summary)", "setting": "[2]; BD-10, dose not stated, 2 hours after modeling", "value": "has a significant effect of reducing body temperature rise"},
      {"measurement": "Body temperature 2 hours after modeling", "setting": "[3]; BD-10 10 mg/kg oral", "value": "36.8 ± 0.05", "unit": "°C"},
      {"measurement": "Body temperature 4 hours after modeling", "setting": "[3]; BD-10 10 mg/kg oral", "value": "37.2 ± 0.1", "unit": "°C"},
      {"measurement": "Body temperature 6 hours after modeling", "setting": "[3]; BD-10 10 mg/kg oral", "value": "37.4 ± 0.1", "unit": "°C"},
      {"measurement": "Body temperature 8 hours after modeling", "setting": "[3]; BD-10 10 mg/kg oral", "value": "37.5 ± 0.1", "unit": "°C"},
      {"measurement": "Body temperature 2 hours after modeling", "setting": "[3]; BD-10 50 mg/kg oral", "value": "37.0 ± 0.1", "unit": "°C"},
      {"measurement": "Body temperature 4 hours after modeling", "setting": "[3]; BD-10 50 mg/kg oral", "value": "37.4 ± 0.04", "unit": "°C"},
      {"measurement": "Body temperature 6 hours after modeling", "setting": "[3]; BD-10 50 mg/kg oral", "value": "37.4 ± 0.01", "unit": "°C"},
      {"measurement": "Body temperature 8 hours after modeling", "setting": "[3]; BD-10 50 mg/kg oral", "value": "37.4 ± 0.09", "unit": "°C"},
      {"measurement": "Effect on increase in body temperature (in words, summary)", "setting": "[3]; BD-10, dose not stated, 2, 4, 6 and 8 hours after modeling", "value": "can significantly inhibit the increase in body temperature"},
      {"measurement": "Effect on body temperature of model rats (in words)", "setting": "[3]; different doses of BD-10 (10, 50 mg/kg), most time points after modeling, vs model group P<0.05", "value": "can inhibit the increase in body temperature of model rats to varying degrees"}
    ]}
  ]
}
